Experimental data from IntAct's records for PubMed 16908849.

B1: Tumor protein 63 (Homo sapiens), Q9H3D4 (parent)
chain: MNFETSRCATLQYCPDPYIQRFVETPAHFSWKESYYRSTMSQSTQTNEFLSPEVFQHIWDFLEQPICSVQPIDLNFVDEPSEDGATNKIEISMDCIRMQDSDLSDPMWPQYTNLGLLNSMDQQIQNGSSSTSPYNTDHAQNSVTAPSPYAQPSSTFDALSPSPAIPSNTDYPGPHSFDVSFQQSSTAKSATWTYSTELKKLYCQIAKTCPIQIKVMTPPPQGAVIRAMPVYKKAEHVTEVVKRCPNHELSREFNEGQIAPPSHLIRVEGNSHAQYVEDPITGRQSVLVPYEPPQVGTEFTTVLYNFMCNSSCVGGMNRRPILIIVTLETRDGQVLGRRCFEARICACPGRDRKADEDSIRKQQVSDSTKNGDGTKRPFRQNTHGIQMTSIKKRRSPDDELLYLPVRGRETYEMLLKIKESLELMQYLPQHTIETYRQQQQQQHQHLLQKQTSIQSPSSYGNSSPPLNKMNSMNKLPSVSQLINPQQRNALTPTTIPDGMGANIPMMGTHMPMAGDMNGLSPTQALPPPLSMPSTSHCTPPPPYPTDCSIVSFLARLGCSSCLDYFTTQGLTTIYQIEHYSMDDLASLKIPEQFRHAIWKGILDHRQLHEFSSPSHLLRTPSSASTVSVGSSETRGERVIDAVRFTLRQTISFPPRDEWNDFNFDMDARRNKQQRIKEEGE

Variants of: B1
Conditions: with itch_human ITCH

For Y543F, which “effect of a mutation on the interaction” value is on record?
The value was “disrupting interaction strength”.
